Test results published in patent US20240043507A1 (RQ BIOTECHNOLOGY, published 2024).

B1: mAb 253H165L (antibody, V domains shown)
VH: not shown
VL: DIVMTQSPGTLSLSPGERATLSCRASQSVRSSYLAWYQQKPGQAPRLLIYGASRRGTGIPDRFSGSGSGTDFTLTISRLEPEDFAVYYCQQYGSSPWTFGQGTKVEIK
B2: mAb 316 (antibody, V domains shown)
VH: not shown
VL: QAVLTQPPSASGSPGQSVTISCTGTSSDVGGYNYVSWYQQHPGKAPKLMIYEVSKRPSGVPDRFSGSKSGNTASLTVSGLQAEDEADYYCSSYAGSNHWVFGGGTKLTVL
B3: antibody 158, full-length IgG (antibody, V domains shown)
VH: EVQLLESGGDLIQPGGSLRLSCAASGVTVSSNYMSWVRQAPGKGLEWVSIIYPGGSTFYADSVKGRFTISRDNSKNTLYLQMHSLRAEDTAVYYCARDLGSGDMDVWGKGTTVTVSS
VL: DIVMTQSPSFLSASVGDRVTITCRASQGISSYLAWYQQKPGKAPKLLIQAASTLQSGVPSRFSGSGSGTEFTLTISSLQPEDFATYYCQQLNSYRYTFGQGTKVEIK
notes: also called mAb 158; 158 IgG
B4: antibody 159, full-length IgG (antibody, V domains shown)
VH: EVQLVESGGGVVQPGRSLRLSCAASGFTFSSYGMHWVRQAPGKGLEWVALISYDGGNRYYADSVKGRFTISRDNSKNTLYLQMNRLRAEDTAMYYCAKDRDDGWDWYYFMDVWGKGTTVTVSS
VL: DIQLTQSPGTLSLSPGERATLSCRASQSISGNYLAWYQHKPGQAPRLLIYGASTRATGIPDRFSGSGSGTDFTLTISRLEPEDFAVYYCQQYGSSYTFGQGTKVEIK
B5: antibody 316, full-length IgG (antibody, V domains shown)
VH: not shown
VL: B2 VL
notes: also called mAb 316; 316 IgG
B6: mAb 158 (antibody, V domains shown)
VH: B3 VH
VL: B3 VL
B7: mAb 88 (antibody, V domains shown)
VH: QLQLQESGPGLVKPSQTLSLTCTVSGGSISSGSYNWTWIRQPAGKGLEWIGRIYNSGSTNYNPSLKSRVTISVDTSKNQLSLKVRSVTAADTAVYYCARHCSGGTCYPKYYYGMDVWGQGTTVTVSS
VL: QSALTQPPSVSEAPRQRVTISCSGSSSNIGNNAVNWYQQFPGKAPKLLIYYDDLLPSGVSDRFSGSKSGTSASLAISGVQSEDEADYYCAAWDDSLNVVVFGGGTKLTVL
B8: mAb 40 (antibody, V domains shown)
VH: QVQLVESGGGLVQPGGSLRLSCAVSGFTVSRNYMSWVRQAPGKGLEWVSLIYSGGSTFYADSVKGRFTISRDNSKNTLYLQMNSLRAEDTAVYYCARDLFHRSGYHDYWGQGTLVTVSS
VL: not shown

How the values were obtained:
[1] = target: T1, SARS-CoV-2 spike on whole virus (SARS-CoV-2/human/AUS/VIC01/2020, Victoria) (SARS-CoV-2, UniProt P0DTC2 14-1273)
[2] = target: T1, SARS-CoV-2 spike on whole virus …; test: cell-based or functional assay
[3] = target: T2, SARS-CoV-2 spike protein on authentic virus, strain SARS-CoV-2/human/AUS/VIC01/2020 (Victoria) (SARS-CoV-2, UniProt P0DTC2 14-1273); test: cell-based or functional assay
[4] = target: T2, SARS-CoV-2 spike protein on authentic …; test: cell-based or functional assay; remark: listed apart in the source
[5] = target: SARS-CoV-2 spike protein on authentic virus, strain B.1.1.7 (SARS-CoV-2, UniProt P0DTC2 14-1273); test: cell-based or functional assay
[6] = target: T2, SARS-CoV-2 spike protein on authentic …; test: whole-virus capture ELISA, half-maximal binding
[7] = target: T2, SARS-CoV-2 spike protein on authentic …; test: calculated from whole-virus ELISA binding and FRNT50

Binder | EC50 (read off the curve) [1] [nM] | Neutralisation IC50 (FRNT) [2] [µg/mL] | Neutralisation IC50 [3] [nM] | IC50 (ug/ml), FRNT [4] [µg/mL] | IC50 (ug/ml), FRNT [5] [µg/mL] | Kd [6] [nM] | % Occupancy [7] [%] | B.1.1.7/Victoria Ratio of IC50 [5]
B1 | ~0.1 | 0.003 |  |  |  |  |  | 
B2 | ~0.1 | 0.01 |  |  |  |  |  | 
B3 |  |  | 0.13 | 0.031 | 0.254 | 0.5 | 20.5 | 
B4 |  |  | 0.08 | 0.011 | 0.061 | 0.19 | 30 | 5.71
B5 |  |  | 0.08 | 0.018 | 0.024 | 0.13 | 35.4 | 
B6 | ~0.5 | 0.034 |  |  |  |  |  | 
B7 | ~0.2 |  |  |  |  |  |  | 
B8 | ~0.3 |  |  |  |  |  |  | 
